From patent publication US20250127885A1 come the findings set out here.

Test [1] addresses HCMV viral Fcγ receptors (vFcγRs) on AD169-infected cells. Put plainly: flow cytometry on AD169-infected fibroblasts, 67 nM antibody. Background: A flow cytometer gives signals particle by particle.
The target is the same in test [2]. Put plainly: cell-based or functional assay.
Test [3] has as its target HCMV glycoprotein B (gB) on HCMV-infected MRC5 fibroblasts (human cytomegalovirus (HCMV), strain AD169) (UniProt P06473). Put plainly: flow cytometry on AD169-infected fibroblasts, 67 nM antibody.
Test [4] shares this target. Put plainly: flow cytometry on AD169-infected fibroblasts, 67 nM antibody; gB and vFcγRs both capture.
The target of test [5] is soluble truncated HCMV gp68 ectodomain (t-gp68) (human cytomegalovirus (HCMV)) (UniProt F5HC14). The experiment in a line: ELISA, gB coated at 2 ug/mL, antibody 100 ug/mL, Gp68 diluted from 50 ug/mL, anti-flag-M2-HRP 1/1000 (table on the sheet). (In an ELISA, binding on a coated surface is turned into a signal by an enzyme label.)
For test [6], the target named is soluble HCMV gp34 ectodomain with C150S (gp34-M) (human cytomegalovirus (HCMV), strain AD169) (UniProt P16809). The experiment in a line: ELISA, gB coated at 2 ug/mL, antibody 100 ug/mL, Gp34 diluted from 50 ug/mL, anti-flag-M2-HRP 1/1000 (table on the sheet).
Test [7] has as its target HCMV glycoprotein B (gB) on HCMV-infected MRC5 fibroblasts (human cytomegalovirus (HCMV), strain AD169) (UniProt P06473). The experiment in a line: flow cytometry on AD169-infected MRC5 cells, anti-human Fcγ-AF647.
Test [8] has the same target. Put plainly: flow cytometry on AD169-infected fibroblasts, 67 nM antibody with soluble gp34-M (100 nM) and/or t-gp68 (2000 nM).
The target is the same in test [9]. Put plainly: flow cytometry, 67 nM antibody on AD169-infected fibroblasts, anti-huFc detection (vFcγRs also present).
Test [10] addresses human CD16A ectodomain fused to mouse CD3 zeta, on BW5147 reporter cells (human; mouse) (UniProt P08637). Put plainly: cell-based or functional assay.
In test [11] the target is HCMV glycoprotein B (gB) on HCMV-infected MRC5 fibroblasts (human cytomegalovirus (HCMV), strain AD169) (UniProt P06473). The experiment in a line: flow cytometry, 67 nM antibody on ΔΔΔ-infected fibroblasts (vFcγRs deleted), anti-huFc detection.
Test [12] has as its target soluble truncated HCMV gp68 ectodomain (t-gp68) (human cytomegalovirus (HCMV)) (UniProt F5HC14). Put plainly: SPR (Biacore X100), equilibrium (steady state) KD; t-gp68 captured by anti-strep Fab, hu4D5 Fc variant injected. (In SPR one partner is held on a chip, and binding of the other changes the refractive index at the surface.)
Test [13] deals with human CD16A F158 allotype (human) (UniProt P08637). The experiment in a line: BLI (Octet RED96e), steady state; hu4D5 variant on FAB2G tips, CD16A F158 5000-156.25 nM, pH 7.4.
human CD16A F158 allotype (human), sequence (P08637 17-208 limits assumed): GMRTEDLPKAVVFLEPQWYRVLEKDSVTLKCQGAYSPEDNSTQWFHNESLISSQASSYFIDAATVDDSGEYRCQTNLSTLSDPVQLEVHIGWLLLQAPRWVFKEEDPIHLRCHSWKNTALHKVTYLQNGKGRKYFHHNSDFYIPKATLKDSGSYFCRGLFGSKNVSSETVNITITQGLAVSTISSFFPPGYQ
Test [14] addresses soluble truncated HCMV gp68 ectodomain (t-gp68) (human cytomegalovirus (HCMV)) (UniProt F5HC14). The experiment in a line: SPR (Biacore X100), kinetic KD; t-gp68 captured by anti-strep Fab on CM5, hu4D5 Fc variant injected; 2:1 fit, first kinetic constants.
The target of test [15] is HCMV Merlin gpRL13 ectodomain displayed on ExpiCHO cells (human cytomegalovirus (HCMV), strain Merlin) (UniProt Q6SWC9). Put plainly: flow cytometry, ExpiCHO cells displaying the ectodomain, hu4D5 Fc variant titrated, goat anti-Fc gamma-AF647.
Test [16] concerns the target HCMV gp34 ectodomain displayed on ExpiCHO cells (human cytomegalovirus (HCMV)) (UniProt P16809). Put plainly: flow cytometry, ExpiCHO cells displaying the ectodomain, goat anti-Fc gamma-AF647, 4PL fit; EC50 unit inferred, x axis IgG (nM).
The target in test [17] is HCMV AD169 gpRL12 ectodomain displayed on ExpiCHO cells (human cytomegalovirus (HCMV), strain AD169) (UniProt P16810). Described as above.
The target of test [18] is biotinylated FcRn (Acro Biosystems) (UniProt P55899). Put plainly: BLI (Octet RED96e), steady state; biotinylated FcRn on SA tips, hu4D5 Fc variant 1000-31.25 nM, pH 6.0.
biotinylated FcRn (Acro Biosystems), sequence (P55899 24-297 limits assumed, chain 1 of 2): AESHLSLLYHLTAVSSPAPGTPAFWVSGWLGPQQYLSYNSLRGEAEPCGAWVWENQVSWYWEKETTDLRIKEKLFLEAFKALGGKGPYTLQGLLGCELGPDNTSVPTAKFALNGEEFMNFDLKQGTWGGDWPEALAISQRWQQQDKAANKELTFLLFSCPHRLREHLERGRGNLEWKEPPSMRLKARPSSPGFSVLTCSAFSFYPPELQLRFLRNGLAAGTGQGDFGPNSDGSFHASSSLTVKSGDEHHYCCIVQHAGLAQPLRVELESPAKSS
biotinylated FcRn (Acro Biosystems), sequence (chain, as listed by the source limits assumed, chain 2 of 2): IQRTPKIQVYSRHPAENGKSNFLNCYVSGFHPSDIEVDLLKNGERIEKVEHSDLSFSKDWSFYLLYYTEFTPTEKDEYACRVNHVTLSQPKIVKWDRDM
The target in test [19] is soluble HCMV gp34 ectodomain with C150S (gp34-M) (human cytomegalovirus (HCMV), strain AD169) (UniProt P16809). Put plainly: SPR (Biacore X100), kinetic KD; gp34-M captured by anti-strep Fab on CM5, hu4D5 Fc variant injected; 1:1 fit.
In test [20] the target is HCMV Merlin gpRL12 ectodomain displayed on ExpiCHO cells (human cytomegalovirus (HCMV), strain Merlin) (UniProt Q6SWD0). The experiment in a line: flow cytometry, ExpiCHO cells displaying the ectodomain, goat anti-Fc gamma-AF647, 4PL fit; EC50 unit inferred, x axis IgG (nM).
Test [21] deals with HCMV Merlin gpRL13 ectodomain displayed on ExpiCHO cells (human cytomegalovirus (HCMV), strain Merlin) (UniProt Q6SWC9). Described as above.
Test [22] addresses HCMV gp68 ectodomain displayed on ExpiCHO cells (human cytomegalovirus (HCMV)) (UniProt P16739). The description is as above.
In test [23] the target is HCMV viral Fcγ receptors (vFcγRs) on AD169-infected cells. Put plainly: flow cytometry, 67 nM antibody on AD169-infected fibroblasts, anti-huFc detection.

human CD16A ectodomain fused to mouse CD3 zeta, on BW5147 reporter cells (human; mouse), sequence (P08637 other isoform, or with tags, fused parts or gaps limits assumed): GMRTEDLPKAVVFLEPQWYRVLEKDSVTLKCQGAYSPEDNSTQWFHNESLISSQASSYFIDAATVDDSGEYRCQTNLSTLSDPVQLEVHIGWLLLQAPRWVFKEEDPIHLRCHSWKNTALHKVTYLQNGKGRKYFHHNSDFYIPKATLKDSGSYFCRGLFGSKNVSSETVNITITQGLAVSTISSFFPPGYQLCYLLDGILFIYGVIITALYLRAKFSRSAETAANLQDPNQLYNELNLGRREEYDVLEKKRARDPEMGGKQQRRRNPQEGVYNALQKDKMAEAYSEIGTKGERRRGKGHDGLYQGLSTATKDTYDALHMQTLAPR

“2B1 control antibody with human IgG1 Fc and an irrelevant Fab”: in test [1], the percent of cells bound amounted to 40%. For the same substance, in [2], the internalization by AD169-infected MRC5 (pHrodo, %) is 20% and the internalization in the presence of soluble gp34-M, t-gp68, or both (%) lay in the range of 0 to 5%.
Substance “2B1 control antibody with mouse IgG2a Fc and an irrelevant Fab” registered a percent of cells bound in [1] of 5%.
With “SM5-1 (anti-gB) with mouse IgG2a Fc (antibody)”, the percent of cells bound in test [3] is 60%.
Substance “SM5-1 (anti-gB) with wild-type human IgG1 Fc (antibody)” had a percent of cells bound in test [4] of 75%. The EC50 (read off the curve) (as a rule, the concentration needed to bring the measured effect to its halfway point) in [5] was 400 ng/mL. This substance showed an EC50 (read off the curve) in [6] of 200 ng/mL. Moreover, the percent of cells stained in test [7] stood at 70%. The same substance showed a percent of cells bound in test [8] of 60%. In [9], this substance yielded a percent of cells stained of 80%. In test [10], this substance yielded a CD16A activation, EC50 (mIL-2 of BW-CD16A-ζ reporter cells), AD169-infected MRC5 of 0.0128 ng/mL and a CD16A activation, EC50 (mIL-2 of BW-CD16A-ζ reporter cells), ΔΔΔ-infected MRC5 of 0.00063 ng/mL. In [2], this substance had an NK-92 V158 degranulation (CD107a, % cells), AD169/GFP-infected MRC5, 20 µg/ml of 5%; an internalization by AD169-infected MRC5 (pHrodo, %) of 37%; an internalization by AD169-infected MRC5 cells (%) of 35%; an internalization by AD169-infected cells (pHrodo, %) of 50%. For the same substance, in test [2], the internalization by ΔΔΔ-infected cells (vFcγRs deleted; pHrodo, %) was found to be 7% and the internalization in the presence of soluble gp34-M, t-gp68, or both (%) fell in the range of 0 to 5%. In addition, in test [11], the percent of cells stained was 80%.
For “hu4D5 antibody with G2 Fc (R255Q, H268L, E294K, Q311L, K334E)”, the Kd – broadly, a measure of binding affinity in units of concentration – in test [12] was determined as 1800 nM; in test [13], 1000 nM; in test [14], 4800 nM; in [18], 50 nM; in test [19], 320 nM. For the same substance, the EC50 (read off the curve) in [15] is 30 nM. Moreover, the concentration giving a half-maximal response (EC50) (commonly the concentration needed to bring the measured effect to its halfway point) in test [16] is 410 nM; in test [17], 81 nM.
On to “hu4D5 antibody with G5 Fc (R255Q, S337F)”, for which the Kd in [12] is 850 nM; in [13], 1000 nM; in test [14], 2100 nM; in test [18] it was 90 nM; in [19], 33 nM. In addition, the EC50 in test [20] worked out at 15 nM; in [16], 410 nM; in test [21] it was 230 nM; in [17], 40 nM.
As for “hu4D5 antibody with wild-type human IgG1 Fc”, the Kd in test [12] was found to be 80 nM; in test [13], 1000 nM; in test [14], 69 nM; in test [18] it was 60 nM; in test [19], 7.3 nM. For the same substance, the EC50 in [20] worked out at 20 nM; in test [16], 40 nM; in test [21], 55 nM; in [17], 74 nM; in [22] it was 12 nM.
In the case of human IgG1 isotype control antibody, the percent of cells stained in test [23] amounted to 35%. This substance also showed an internalization by AD169-infected cells (pHrodo, %) in test [2] of 10%.
